# “Also recorded” adds a separate entry of the source.
# What was measured:
# [1] = test system: cortical neurons; assay: TUNEL assay of Aβ-induced apoptosis in cortical neurons; format: cell-based, rat; details: neurons transfected with GFP-P5, Aβ 6 h
# Procedure: Primary cortical neuron cells were cultured for 5 days on glass coverslips coated with poly-L-lysine, and transfected with or without P5 using Lipofectamine 2000. After 24 hours, TUNEL staining was done according to the manufacturer's instructions. Cells were washed three times in PBS, fixed for 1 hour at room temperature in fresh 4% paraformaldehyde in PBS, and permeabilized (0.1% Triton X-100 in 0.1 sodium citrate) for 2 minutes on ice. After washing 2× with PBS, TUNEL reaction mixture (50 μl) was added and incubated in a humidified atmosphere at 37° C. for 1 hour. TUNEL staining and fluorescent images were visualized with a Zeiss LSM-510 laser-scanning confocal microscope. Images were processed and merged by Adobe Photoshop software.
# To determine whether P5 inhibited neuronal apoptosis induced by Aβ, primary cortical neurons (5 days in culture (DIC)) were transfected with P5-GFP using Lipofectamine 2000. After 24 hours, cells were exposed to Aβ for 6 hours. The neurons were fixed and subjected to TUNEL staining, while P5 was visualized by (green fluorescent protein) GFP. […] The data are quantified in FIG. 5B. More than 85% of nontransfected neurons were apoptosis positive. […] Cortical neurons infected with or without P5 and treated with Aβ for 6 hours were assayed for cleaved caspase 3 by Western blot analysis (FIG. 5C). […]. […] The data are quantified in FIG. 5D.
# [2] = test system: cleaved caspase-3; assay: Cleaved caspase-3 Western blot in Aβ-treated cortical neurons; format: cell-based, rat; details: Aβ 6 h; P5 infection or roscovitine
# Procedure: Western blot analysis was performed as previously described (Zheng et al., Eur J Biochem 269(18), 4427-4434, 2002). In brief, an equal amount of total protein (20 μg/lane) was resolved on a 4-20% SDS polyacrylamide gel and blotted onto a polyvinylidene difluoride membrane. This membrane was incubated in blocking buffer containing 20 mM Tris-HCl (pH 7.4), 150 mM NaCl, and 0.1% (vol/vol) Tween 20 (TTBS) plus 5% dry milk (w/v) for 1 hour at room temperature followed by incubation overnight at 4° C. in primary antibodies (see antibodies). The membranes were then washed four times in TTBS (5 minutes/each) followed by incubation in secondary antibody (goat-antimouse or goat anti-rabbit IgG (H+L)-horseradish peroxidase (HRP) conjugate at a dilution of 1:3000) for 1 hour at room temperature. Western blots were analyzed using the Amersham Enhanced Chemiluminescence (ECL) kit following the manufacturer's instructions (GE Healthcare, Piscataway, N.J.).
# To determine whether P5 inhibited neuronal apoptosis induced by Aβ, primary cortical neurons (5 days in culture (DIC)) were transfected with P5-GFP using Lipofectamine 2000. After 24 hours, cells were exposed to Aβ for 6 hours. The neurons were fixed and subjected to TUNEL staining, while P5 was visualized by (green fluorescent protein) GFP. […] The data are quantified in FIG. 5B. […] The data are quantified in FIG. 5D.
# [3] = molecular target: Cdk5/P35 (Homo sapiens, UniProt Q00535); assay: Cdk5/P35 kinase assay after pre-incubation with β-tubulin; format: biochemical
# Procedure: Tubulin polymerization was performed as detailed in a previous report (Hou et al., J. Biol. Chem., 282(26), 18666-18670, 2007). Briefly, active kinase Cdk5/P35 (2 ng/μL) or active Cdk5/P25 (1 ng/μL) were incubated with β-tubulin (enzyme: tubulin at 1:100) in the PEM buffer (80 mM PIPES, 2 mM MgCl2, 1 mM EGTA PH 7.0) supplemented with 1 mM GTP at 35° C. for 45 minutes. Following the incubation, Cdk5 kinase assays were performed with or without the addition of 0.45 μM or 0.90 μM P5.
# To further explore this possibility, β-tubulin (which is enriched in neurons) was used to perform a study in vitro to mimic P35 interactions in cells. Cdk5/P35 and Cdk5/P25 active kinases were pre-incubated with β-tubulin (Cdk5 kinase:tubulin=1:100) respectively at 35° C. for 45 minutes to 1 hour under conditions that would promote tubulin polymerization, followed by a Cdk5 kinase assay with/without the addition of P5. […] Cdk5/P25 activity, however, was inhibited 60% after pre-incubation at the lower P5 concentration (0.45 μM) (FIG. 9B, lane 4 compared with lane 1) (p<0.01). […] On the other hand, P25, lacking the P10 domain, fails to bind these proteins, and P5 readily binds with Cdk5 in the Cdk5/P25 complex to inhibit activity.
# Sequence of Cdk5/P35 (Q00535 whole entry, species assumed): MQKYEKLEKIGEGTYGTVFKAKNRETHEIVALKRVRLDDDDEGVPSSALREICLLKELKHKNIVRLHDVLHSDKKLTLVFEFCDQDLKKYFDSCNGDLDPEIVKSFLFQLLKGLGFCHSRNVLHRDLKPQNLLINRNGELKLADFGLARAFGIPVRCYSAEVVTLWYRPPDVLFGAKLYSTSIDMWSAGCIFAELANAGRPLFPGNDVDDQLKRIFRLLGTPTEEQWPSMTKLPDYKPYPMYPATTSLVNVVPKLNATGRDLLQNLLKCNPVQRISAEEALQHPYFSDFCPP
substance,measurement,setting,value
P5: 24 residue peptide derived from Cdk5 activator P35 (K254-A277 of SEQ ID NO: 16); Cdk5 inhibitory peptide (KEAFWDRCLSVINLMSSKMLQINA; listed as Homo sapiens),Aβ-induced apoptosis (TUNEL),[1],virtually all P5 transfected cells were protected from Aβ-induced apoptosis; also recorded: clearly inhibited Aβ-mediated neuronal apoptosis
same,Cleaved caspase-3 expression,[2],marked reduction in cleaved caspase 3 expression; also recorded: reduced to control EV levels; also recorded: significantly rescued cortical neurons from apoptosis
same,Inhibition of Cdk5/P35 activity pre-incubated with polymerized tubulin,[3]; 0.45 μM P5,no effect on pre-incubated Cdk5/P35 activity; also recorded: not inhibited; also recorded: had no effect on Cdk5/P35
same,Inhibition of Cdk5/P35 activity with unpolymerized tubulin (no pre-incubation),[3]; 0.45 μM P5,P5 inhibits both kinases equally; also recorded: inhibited both Cdk5/P35 and Cdk5/P25 activities equally; also recorded: inhibited both complexes equally
same,Inhibition of Cdk5/P35 activity pre-incubated with polymerized tubulin,[3]; 0.9 μM P5,both kinase complexes are inhibited equally; also recorded: both Cdk5 complexes were inhibited

# — patent publication US8597660B2, “Therapeutic approach to neurodegenerative disorders using a TFP5-peptide” (The United States of America, as represented by the …, priority 2010, dated 2013)
